Measurements: patent US20210115142A1 (NANJING LEADS BIOLABS, published 2021)

B1: human TGFβR2-hFc (ACRObiosystems, Cat #TG2-H5252) (Fc fusion, UniProt P37173 23-159, looked up)
chain: TIPPHVQKSVNNDMIVTDNNGAVKFPQLCKFCDVRFSTCDNQKSCMSNCSITSICEKPQEVCVAVWRKNDENITLETVCHDPKLPYHDFILEDAASPKCIMKEKKKPGETFFMCSCSSDECNDNIIFSEEYNTSNPD
notes: Bought Fc fusion; also called positive control; not shown: human Fc of the bought fusion
B2: anti-PD-1 antibody 21F12-1F6 (antibody, human IgG1, kappa, L234A L235A, V domains shown)
VH: QMQLVQSGAEVKKPGASVKLSCKASGYIFQSYYIHWVRQAPGQGLEWVGVINPSGGSTTYAQKFQGRVTMTRDTSISTAYMELSRLRSDDTVVYYCARGSYSSGWDYYYYYGMDVWGKGTLVTVSS
VL: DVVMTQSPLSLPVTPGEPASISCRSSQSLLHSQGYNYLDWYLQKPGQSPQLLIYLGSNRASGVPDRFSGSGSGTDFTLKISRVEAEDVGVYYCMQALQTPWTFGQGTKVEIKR
notes: Positive control in the PD-1 ELISA; also called anti-human PD-1; antibody 21F12-1F6 in PCT/CN2019/087287

Assays:
Human TGFβ1 protein = target: T1, Human TGFβ1 protein (human, UniProt P01137 279-390); experiment: ELISA, human TGFβ1 coated at 10 ng/well, detection with HRP goat anti-human Fc, OD450-620 [left panel]
T1 construct: also called TGFβ1 protein (Sino, 10804-HNAC); Novoprotein Inc., Cat #CA59
T1 sequence (P01137 279-390 limits assumed): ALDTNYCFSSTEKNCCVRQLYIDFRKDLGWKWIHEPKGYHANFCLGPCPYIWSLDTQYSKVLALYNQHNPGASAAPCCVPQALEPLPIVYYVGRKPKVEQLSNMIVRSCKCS
Method: (§1) The plates were then blocked by incubation with 1% BSA in PBS for one hour at 37° C. After blocking, the plates were washed three times with PBST (PBS containing 0.05% Tween 20). […] After binding, the plates were washed three times with PBST, incubated for one hour at 37° C. with peroxidase-labeled Goat anti-human Fc antibody (Jackson Immuno Research, Cat #109-035-098) diluted 1/20,000 in binding buffer, washed again, developed with TMB (ThermoFisher Cat #34028) for 15 minutes, and then stopped with 1M H₂SO₄. The absorbance at 450 nm-620 nm was determined.

[1] = target: T2, Human PD-1 protein (ACRObiosystems, Cat #PD1-H5221) (human, UniProt Q15116 25-167); experiment: ELISA, human PD-1 coated at 25 ng/well, detection with HRP goat anti-human F(ab')2, OD450-620 [right panel]
T2 construct: Bought soluble protein
T2 sequence (Q15116 25-167 limits assumed): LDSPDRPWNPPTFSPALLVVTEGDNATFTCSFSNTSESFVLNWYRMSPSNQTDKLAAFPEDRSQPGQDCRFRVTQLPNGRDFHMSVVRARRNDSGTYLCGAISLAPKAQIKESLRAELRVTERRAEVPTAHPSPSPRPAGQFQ
Method: (§2) An ELISA assay was performed for determination of the relative binding capacity of the fusion proteins to human PD-1.
as §1, with “Human PD-1 protein (ACRObiosystems, Cat #PD1-H5221) was immobilized onto 96-well plates in PBS (Hyclone, Cat #SH30256.01) by incubation overnight at 4° C., 25 ng/well. The” for “The”, “F(ab′)²” for “Fc”, “#109-035-097)” for “#109-035-098)”, “(ThermoFisher,” for “(ThermoFisher”, “Each plate well contained 50 μL of solution” for “The absorbance”, “each step.” for “450 nm-620 nm was determined.”

[2] = target: T2, Human PD-1 protein (ACRObiosystems, Cat …); experiment: ELISA, human PD-1 coated at 25 ng/well, detection with HRP goat anti-human F(ab')2, OD450-620 [left panel]
Method: as §2
as §1, with “Human PD-1 protein (ACRObiosystems, Cat #PD1-H5221) was immobilized onto 96-well plates in PBS (Hyclone, Cat #SH30256.01) by incubation overnight at 4° C., 25 ng/well. The” for “The”, “F(ab′)²” for “Fc”, “#109-035-097)” for “#109-035-098)”, “(ThermoFisher,” for “(ThermoFisher”, “Each plate well contained 50 μL of solution” for “The absorbance”, “each step.” for “450 nm-620 nm was determined.”

Binder	EC50 (Human TGFβ1 protein) [nM]	EC50 [1] [nM]	EC50 [2] [nM]
B1	0.0652		
B2		0.0995	0.0957
